Measured values as given in patent CN114989297A (BEIJING KEY BIOTECHNOLOGY CO LTD, dated 2022).

Molecular target: T1, 单核细胞增生李斯特氏菌鞭毛蛋白免疫原 (Listeria monocytogenes, UniProt Q02551 1-287)
T1 construct: Native flagellin preparation concentrated by ultrafiltration, not a recombinant protein; purity beyond the 33 kD band is not described; also called 免疫原蛋白; 抗原
T1 sequence (looked up): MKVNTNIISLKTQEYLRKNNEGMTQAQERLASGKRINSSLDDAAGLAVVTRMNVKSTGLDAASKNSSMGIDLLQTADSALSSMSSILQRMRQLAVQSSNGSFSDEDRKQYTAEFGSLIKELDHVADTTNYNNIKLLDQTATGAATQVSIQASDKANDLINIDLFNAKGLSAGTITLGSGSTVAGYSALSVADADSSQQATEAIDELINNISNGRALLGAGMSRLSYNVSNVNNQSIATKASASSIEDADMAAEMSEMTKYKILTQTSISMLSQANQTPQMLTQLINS
Test: IAsys Plus optical biosensor, immunogen immobilised on CMD cuvette, antibody at 5 concentrations, FASTfit

B1: LM6G3单克隆抗体 (antibody, V domains shown)
VH: VKPGGSLKLSCAASITAQPSPRMSWVRQTPDKRLEWVAICFEKKIGLYYPDSVKGRFTISRDQDKQTLYLQMSSLKSEDTAMYYCEHEWWDEQVSPWGQGTTVTVS
VL: DLVMTQTAPSVPVTPGESVSISCRSTFKPWPKYEPLHLYWFLQRPGQSPQLLIYMWFNLASGVPDRFSGSGSGTAFTLRISRVEAEDVGVYYCMNACCYYRQFGSGTKLEIK
  Kd: 8.73 nM

B2: LM3F6单克隆抗体 (antibody, V domains shown)
VH: VKPGGSLKLSCAASSWAQYINTMSWVRQTPDKRLEWVAIISYYSRDKYYPDSVKGRFTISRDQDKQTLYLQMSSLKSEDTAMYYCPYTRPPVIWMTWGQGTTVTVS
VL: DLVMTQTAPSVPVTPGESVSISCRSTQGYCRKLVGDYLYWFLQRPGQSPQLLIYWHPNLASGVPDRFSGSGSGTAFTLRISRVEAEDVGVYYCLCCRCKSGGFGSGTKLEIK
  Kd: 2.46 nM
